Blank lines part the entries; values can stand above or below the binder they belong to.
Assays:
[1] = molecular target: T1, human PD-L1 expressed on cells (CHO-PD-L1, HCC1954, HCC827) (human, UniProt Q9NZQ7 19-290); experiment: flow cytometry competition in presence of human SA: binding of biotinylated PD-1 to HCC1954 cells (Her2+++, PD-L1); blocked ligand PD-1 [HCC1954]
T1 construct: whole, on cells; also called hPD-L1; PD-L1 expressing cells

[2] = molecular target: T1, human PD-L1 expressed on cells …; experiment: flow cytometry with human SA, inhibition of PD-1 binding to HCC1954 cells
[3] = molecular target: CD137 on transgenic NF-kB Jurkat reporter cells (Homo sapiens (Human), UniProt Q07011 24-255); experiment: cell-based or functional assay
[4] = molecular target: T2, CD3e on Jurkat PD-1 NFAT reporter T cells or on T cells of human PBMCs (human, UniProt P07766 23-207); experiment: cell-based or functional assay
[5] = molecular target: T3, human HER2 expressed on cells (SK-OV3, MCF-7, HCC1954, HCC827) (human, UniProt P04626 23-1255); experiment: flow cytometry, IFNy-stimulated HCC827 cells
T3 construct: whole, on cells

[6] = molecular target: unidentified antigen on CHO PD-L1 cells bound by pertuzumab (the filing speculates hamster HER2); experiment: flow cytometry, CHO PD-L1 cells (residual binding)
[7] = molecular target: T3, human HER2 expressed on cells (SK-OV3, …); experiment: flow cytometry, MCF-7 cells
[8] = molecular target: T3, human HER2 expressed on cells (SK-OV3, …); experiment: flow cytometry, SK-OV3 cells, no competitor
[9] = molecular target: T3, human HER2 expressed on cells (SK-OV3, …); experiment: flow cytometry, IFNy-stimulated HCC1954 cells
[10] = molecular target: T3, human HER2 expressed on cells (SK-OV3, …); experiment: flow cytometry, SK-OV3 cells, competitor 50 nM trastuzumab
[11] = molecular target: T4, recombinant human Her2 ECD (SinoBiological, cat. 10004-HCCH) (human, UniProt P04626 23-652); experiment: SPR, human Her-2
T4 construct: extracellular domain; bought protein

[12] = molecular target: T3, human HER2 expressed on cells (SK-OV3, …); experiment: flow cytometry, SK-OV3 cells
[13] = molecular target: T4, recombinant human Her2 ECD …; experiment: SPR, immobilised Her2 ECD
mouse serum albumin = molecular target: T5, mouse serum albumin (mouse, UniProt P07724 25-608); experiment: SPR, immobilised MSA, pH 5.5
T5 construct: also called MSA; mouse SA

human serum albumin = molecular target: T6, human serum albumin (human, UniProt P02768 25-609); experiment: SPR, immobilised HSA, pH 5.5
T6 construct: also called HSA; human SA

[14] = molecular target: T7, recombinant human CD3E ECD (SinoBiological, cat. 10977-H08H) (human, UniProt P07766 23-126); experiment: SPR, immobilised CD3e ECD, two-state model
T7 construct: extracellular domain; bought protein; also called CD3s

[15] = molecular target: T8, Fc-tagged human PD-L1 extracellular domain (SinoBiological, cat. 10084-H02H) (human, UniProt Q9NZQ7 19-238); experiment: SPR, captured Fc-PD-L1 ECD
T8 construct: extracellular domain; also called hPD-L1; not shown: Fc tag of the bought protein

[16] = molecular target: T2, CD3e on Jurkat PD-1 NFAT reporter T …; experiment: cell-based or functional assay; remark: listed apart in the source
[17] = molecular target: T7, recombinant human CD3E ECD …; experiment: SPR, immobilised CD3e ECD, two-state model; overall KD of the two-state fit
[18] = molecular target: T2, CD3e on Jurkat PD-1 NFAT reporter T …; experiment: cell-based or functional assay; remark: listed apart in the source
[19] = molecular target: T9, recombinant human IL-23R (custom-made by Trenzyme) (human, UniProt Q5VWK5 24-355); experiment: SPR, immobilised IL-23R
T9 sequence (looked up): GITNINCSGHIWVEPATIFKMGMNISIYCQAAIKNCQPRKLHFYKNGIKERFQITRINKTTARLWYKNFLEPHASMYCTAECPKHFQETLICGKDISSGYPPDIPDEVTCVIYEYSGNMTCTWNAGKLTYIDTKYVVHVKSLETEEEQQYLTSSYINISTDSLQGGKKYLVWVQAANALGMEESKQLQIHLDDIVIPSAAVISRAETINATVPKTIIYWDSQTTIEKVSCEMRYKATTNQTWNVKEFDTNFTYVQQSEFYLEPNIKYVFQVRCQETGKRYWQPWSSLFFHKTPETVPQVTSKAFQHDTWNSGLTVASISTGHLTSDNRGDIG

[20] = molecular target: T7, recombinant human CD3E ECD …; experiment: SPR, immobilised CD3e ECD, two-state model (ka1); ka1, first step of the two-state fit
[21] = molecular target: T7, recombinant human CD3E ECD …; experiment: SPR, immobilised CD3e ECD, two-state model (kd1); kd1, first step of the two-state fit

T5 sequence (P07724 25-608 limits assumed): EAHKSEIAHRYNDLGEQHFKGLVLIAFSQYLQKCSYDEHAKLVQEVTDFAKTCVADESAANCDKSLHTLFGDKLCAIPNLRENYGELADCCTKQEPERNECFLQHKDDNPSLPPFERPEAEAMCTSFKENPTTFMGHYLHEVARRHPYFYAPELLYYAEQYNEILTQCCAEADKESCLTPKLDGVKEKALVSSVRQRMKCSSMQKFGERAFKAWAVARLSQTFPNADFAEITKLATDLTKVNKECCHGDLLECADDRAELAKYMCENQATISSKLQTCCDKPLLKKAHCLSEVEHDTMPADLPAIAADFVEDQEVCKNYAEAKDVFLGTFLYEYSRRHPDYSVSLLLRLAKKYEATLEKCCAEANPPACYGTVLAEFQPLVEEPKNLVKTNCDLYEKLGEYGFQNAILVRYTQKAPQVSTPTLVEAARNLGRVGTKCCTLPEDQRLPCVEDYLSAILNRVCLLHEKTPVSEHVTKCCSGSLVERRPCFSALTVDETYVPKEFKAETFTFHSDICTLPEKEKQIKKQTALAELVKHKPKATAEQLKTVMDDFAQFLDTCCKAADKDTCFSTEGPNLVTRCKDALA
T7 sequence (P07766 23-126): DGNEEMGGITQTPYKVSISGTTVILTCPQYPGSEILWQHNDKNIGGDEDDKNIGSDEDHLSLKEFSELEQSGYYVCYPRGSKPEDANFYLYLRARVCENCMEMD

IC50 (read off the curve) [1]: ~2000 pM | IC50 [2]: 0.167 µg/mL | EC50, NFkB reporter gene assay, HCC827 cells [3]: 287 pM | EC50, NFkB reporter gene assay, HCC1954 cells [3]: 168 pM
B1: PRO1993 (multispecific antibody)
chain 1: DIQMTQSPSSLSASVGDRVTITCKASQDVSIGVAWYQQKPGKAPKLLIYSASYRYTGVPSRFSGSGSGTDFTLTISSLQPEDFATYYCQQYYIYPYTFGCGTKVTVLGGGGGSGGGGSGGGGSGGGGSEVQLVESGGGLVQPGGSLRLSCAASGFTFTDYTMDWVRQAPGKCLEWVADVNPNSGGSIYNQRFKGRFTLSVDRSKNTLYLQMNSLRAEDTAVYYCARNLGPSFYFDYWGQGTLVTVSSGGGGSGGGGSDVVMTQSPSSLSASVGDRVTITCQASQIISSRSAWYQQKPGQPPKLLIYQASKLASGVPSRFSGSGSGTDFTLTISSLQPEDFATYYCQCTYIDSNFGAFGTGTKLTVLGGGSGGSDIQMTQSPSSLSASVGDRVTITCQASQSISNRLAWYQQKPGKAPKLLIYSASTLASGVPSRFSGSGSGTDFTLTISSLQPEDFATYYCQSTYYGNDGNAFGCGTKVTVLG
chain 2: DIQMTQSPSSLSASVGDRVTITCQASQSINDYLAWYQQKPGKAPKLLIYKASTLASGVPSRFSGSGSGTDFTLTISSLQPEDFATYYCQAAYIITDIDNVFGTGTKVTVLGGGGGSGGGGSGGGGSGGGGSQVQLQESGPGLVKPSETLSLTCKVSGFSFSSGYDMCWIRQPPGKGLEWIGCVVAGSVDITYYASWAKGRVTISVDSSKNQFSLKLSSVTAADTAVYYCARKDAYSDAFNLWGQGTLVTVSSGGGGSGGGGSEVQLVESGGGLVQPGGSLRLSCAASGFSFSANYYPCWVRQAPGKCLEWIGCIYGGSSDITYDANWTKGRFTISRDNSKNTVYLQMNSLRAEDTAVYYCARSAWYSGWGGDLWGQGTLVTVSSGGGSGGGSEVQLVESGGGLVQPGGSLRLSCAASGFSFSSSYWICWVRQAPGKGLEWVGCVFTGDGTTYYASWAKGRFTISRDNSKNTVYLQMNSLRAEDTATYFCARPVSVYYYGMDLWGQGTLVTVSS

T cell activation IC50, PBMC with HCC827 cells [4]: 153 pM | T cell activation IC50, PBMC with HCC1954 cells [4]: 27 pM | EC50 [5]: 1340 pM | EC50 [6]: 97300 pM | EC50 [7]: 5350 pM | EC50 [8]: 2020 pM | EC50 [9]: 17300 pM | EC50 [10]: 4550 pM | Kd [11]: 414 pM | koff [11]: 8.11e-05 s⁻¹ | kon [11]: 196000 M⁻¹ s⁻¹ | EC50 [12]: 1870 pM
B2: PRO1895 (multispecific antibody)
chain 1: DIQMTQSPSSLSASVGDRVTITCKASQDVSIGVAWYQQKPGKAPKLLIYSASYRYTGVPSRFSGSGSGTDFTLTISSLQPEDFATYYCQQYYIYPYTFGCGTKVTVLGGGGGSGGGGSGGGGSGGGGSEVQLVESGGGLVQPGGSLRLSCAASGFTFTDYTMDWVRQAPGKCLEWVADVNPNSGGSIYNQRFKGRFTLSVDRSKNTLYLQMNSLRAEDTAVYYCARNLGPSFYFDYWGQGTLVTVSSGGGGSGGGGSDVVMTQSPSSLSASVGDRVTITCQASQIISSRSAWYQQKPGQPPKLLIYQASKLASGVPSRFSGSGSGTDFTLTISSLQPEDFATYYCQCTYIDSNFGAFGCGTKLTVLGGGSGGSDIQMTQSPSSLSASVGDRVTITCQSSQSVFSNNYLAWFQQKPGQSPKRLIYSASTLASGVPSRFSGSGSGTDFTLTISSLQPEDFATYYCLGSYACSSADCYVFGTGTKVTVLG
chain 2: DIQMTQSPSSLSASVGDRVTITCQASQSINDYLAWYQQKPGKAPKLLIYKASTLASGVPSRFSGSGSGTDFTLTISSLQPEDFATYYCQAAYIITDIDNVFGTGTKVTVLGGGGGSGGGGSGGGGSGGGGSQVQLQESGPGLVKPSETLSLTCKVSGFSFSSGYDMCWIRQPPGKGLEWIGCVVAGSVDITYYASWAKGRVTISVDSSKNQFSLKLSSVTAADTAVYYCARKDAYSDAFNLWGQGTLVTVSSGGGGSGGGGSEVQLVESGGGLVQPGGSLRLSCAASGFSLSSYDMSWVRQAPGKGLAWIGASYASGPTYYASWAKGRFTISRDNSKNTVYLQMNSLRAEDTATYFCARGGWTGTSHSNIWGQGTLVTVSSGGGSGGGSEVQLVESGGGLVQPGGSLRLSCAASGFSFSSSYWICWVRQAPGKCLEWVGCVFTGDGTTYYASWAKGRFTISRDNSKNTVYLQMNSLRAEDTATYFCARPVSVYYYGMDLWGQGTLVTVSS
notes: also called pertuzumab-based MATCH4

Kd [13]: 318 pM | koff [13]: 6.35e-05 s⁻¹ | kon [13]: 200000 M⁻¹ s⁻¹ | Kd (mouse serum albumin): 11200 pM | koff (mouse serum albumin): 0.00107 s⁻¹ | kon (mouse serum albumin): 95600 M⁻¹ s⁻¹ | Kd (human serum albumin): 498 pM | koff (human serum albumin): 0.00012 s⁻¹ | kon (human serum albumin): 240000 M⁻¹ s⁻¹ | KD1 [14]: 18.7 nM | kd2 [14]: 0.00356 s⁻¹ | binding result [15]: no binding | IC50, NFAT reporter, HCC1954 cells [16]: 391 pM | IC50, NFAT reporter, HCC1954 cells, + PRO1434 [16]: 671 pM | IC50, NFAT reporter, HCC1954 cells, + nivolumab [16]: 319 pM | rel. max. activation vs PRO1497, NFAT reporter, HCC1954 cells [16]: 82% | Kd [17]: 8430 pM | Kd [19]: 931 pM | koff [19]: 0.000514 s⁻¹ | kon [19]: 552000 M⁻¹ s⁻¹ | kon [20]: 283000 M⁻¹ s⁻¹ | koff [21]: 0.00529 s⁻¹
B3: PRO1557 (multispecific antibody)
chain 1: not shown
chain 2: DIQMTQSPSSLSASVGDRVTITCQASENIYSFLAWYQQKPGKAPKLLIYSASKLAAGVPSRFSGSGSGTDFTLTISSLQPEDFATYYCQQTNRYSNPDIYNVFGTGTKVTVLGGGGGSGGGGSGGGGSGGGGSEVQLVESGGGLVQPGGSLRLSCAASGIDFNSNYYMCWVRQAPGKGLEWIGCIYVGSHVNTYYANWAKGRFTISRDNSKNTVYLQMNSLRAEDTAVYYCATSGSSVLYFKFWGQGTLVTVSSGGGGSGGGGSEVQLVESGGGLVQPGGSLRLSCAASGFSLSSYDMSWVRQAPGKGLAWIGASYASGPTYYASWAKGRFTISRDNSKNTVYLQMNSLRAEDTATYFCARGGWTGTSHSNIWGQGTLVTVSSGGGSGGGSEVQLVESGGGLVQPGGSLRLSCAASGFSFSSSYWICWVRQAPGKCLEWVGCVFTGDGTTYYASWAKGRFTISRDNSKNTVYLQMNSLRAEDTATYFCARPVSVYYYGMDLWGQGTLVTVSS
target cell killing IC50, 16 h, HCC1954 cells [18]: 2.79 pM | target cell killing IC50, 16 h, MCF-7 cells [18]: 18.1 pM
